Measurements taken from US20220267443A1 (AGENUS, published 2022).

T1: recombinant human CTLA-4-Fc (R&D Systems, #7268-CT) (human, UniProt P16410 36-161)
T1 construct: Bought protein; also called rhCTLA-4-Fc; CTLA-4 antigen; not shown: Fc part of the bought fusion protein
T1 sequence: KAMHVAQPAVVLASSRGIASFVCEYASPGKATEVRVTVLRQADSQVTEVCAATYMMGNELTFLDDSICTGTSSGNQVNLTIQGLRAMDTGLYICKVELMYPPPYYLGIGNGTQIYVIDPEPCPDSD


Each binder was assayed against T1, recombinant human CTLA-4-Fc (R&D …) (assay: surface plasmon resonance, antibody captured on CM5 chip, rhCTLA-4-Fc in solution).
Source text: To detect nonspecific interactions of the CTLA-4 antigen, antibody capture was only performed in flow cell 2, whereas in flow cell 1 only the capturing antibody was immobilized. After capture of the anti-CTLA-4 antibodies, the CTLA-4 antigens were run through both flow cells in different amounts. Specifically, recombinant human CTLA-4-Fc (R&D Systems, #7268-CT), recombinant human CTLA-4 (Sino Biological, #11159-H08H), recombinant cynomolgus CTLA-4-Fc (Sino Biological, #90213-C02H), and recombinant cynomolgus CTLA-4 (Sino Biological, #90213-C08H) were run at 100 nM, 25 nM, and 6.25 nM; and recombinant mouse CTLA-4-Fc (R&D, # 434-CT), recombinant rat CTLA-4-Fc (Sino Biological, #81069-RO2H), and recombinant rat CTLA-4 (Sino Biological, #81069-R08H) were run at 400 nM, 100 nM, and 25 nM. A blank curve (running buffer only) was also included in each run. Association was run for 90 seconds and dissociation for 600 seconds with a flow rate of 10 μl/min. After each run a regeneration step was performed with 10 mM Glycine pH 2.0 (GE Healthcare, BR-1003-55) for 60 seconds with 30 μl/min. Binding curves were evaluated using BIAcore® T200 evaluation software version 2.0.1 applying a Langmuir 1:1 model with global fit of Rmax. From these values the affinities (KD) of AGEN1884 and the reference anti-CTLA-4 antibody for various antigens were calculated and shown in FIG. 1A. The recombinant monomeric cynomolgus CTLA-4, mouse CTLA-4-Fc, and monomeric rat CTLA-4 used in this study failed quality control assessment. […] The surface plasmon resonance analysis was later repeated twice using recombinant mouse CTLA-4-Fc (Sino Biological, #81069-R02H) that passed a quality control assessment at 360 nM, 120 nM, 40 nM, and 13.3 nM for AGEN1884w.
The affinity of the 19 anti-CTLA-4 antibodies described above was analyzed by surface plasmon resonance in an assay similar to the one described in Section 6.1.1. The CTLA-4 antigen tested was recombinant human CTLA-4-Fc (R&D Systems, #7268-CT). The anti-CTLA-4 antibodies (6 μg/ml in running buffer) were captured to the chip surface of a CMS sensor chip.

binding result | Binder
binds | AGEN1896 (antibody, V domains shown) VH: EVQLLESGGGLVKPGGSLRLSCAASGFTFSSYSMNWVRQAPGKGLEWVSSISSSSSYIYYADSVKGRFTISRDNAKNSLYLQMNSLRAEDTAVYYCARVGLMGPFDIWGQGTMVTVSS VL: EIVLTQSPATLSFSPGERATLSCRASQSVSSYLAWYQQKPGQAPRLLIYGASSRATGIPDRFSGSGSGTDFTFTISRLEPEDFAVYYCQQYGSSPFTFGPGTKVDIK
binds | AGEN1901 (antibody, V domains shown) VH: EVQLVESGGGLVQPGGSLTLSCAASGFTFSSYSMNWVRQAPGKGLEWVSSISSSSSYIYYADSVKGRFTISRDNAKNSLYLQMNSLRAEDTAVYYCARVGLMGPFDIWGQGTMVTVSS VL: EIVLTQSPATLSLSPGERATLSCRASQSVGTYLAWYQHKVGQAPRLLIYGASRRATGIPDRFSGSGSGTDFTLTISRLEPEDFAVYYCQQYGSSPWTFGQGTKVEIK
binds | AGEN1897 (antibody, V domains shown) VH: EVQLLESGGGLVQPGGSLRLSCAASGFTFSSYAMSWVRQAPGKGLVWVSSISSSSSYIYYADSVKGRFTISRDNAKNSLYLQMNSLRAEDTAVYYCARVGLMGPFNIWGQGTMVTVSS VL: EIVLTQSPGTLSLSPGERATLSCRASQSVSRYLGWYQQKPGQAPRLLIYGASTRATGIPDRFSGSGSGTDFTLTITRLEPEDFAVYYCQQYGSSPWTFGQGTKVEIK
binds | AGEN1898 (antibody, V domains shown) VH: EVQLLESGGGLVQPGGSLRLSCAASGFTFSSYAMSWVRQAPGKGLVWVSSISSSSSYIYYADSVKGRFTISRDNAKNSLYLQMNSLRAEDTAVYYCARVGLMGPFNIWGQGTMVTVSS VL: EIVLTQSPATLSLSPGERATLSCRASQSVSSYLAWYQQKPGQAPSLLIYATSSRATGIPDRFSGSVSGTDFTLTISRLEPEDFAVYYCQQYGTSPWTFGQGTKVEIK
binds | AGEN1887 (antibody, V domains shown) VH: EVQLLESGGGLVQPGGSLRLSCAASGFTFSSYAMSWVRQAPGKGLVWVSSISSSSSYIYYADSVKGRFTISRDNAKNSLYLQMNSLRAEDTAVYYCARVGLMGPFDIWGQGTMVTVSS VL: EIVLTQSPGTLSLSPGERATLSCRASQSVSRYLGWYQQKPGQAPRLLIYGASTRATGIPDRFSGSGSGTDFTLTITRLEPEDFAVYYCQQYGSSPWTFGQGTKVEIK
binds | AGEN1899 (antibody, V domains shown) VH: EVQLLESGGGLVQPGGSLRLSCAASGFTFSSYAMSWVRQAPGKGLVWVSSISSSSSYIYYADSVKGRFTISRDNAKNSLYLQMNSLRAEDTAVYYCARVGLMGPFNIWGQGTMVTVSS VL: EIVLTQSPATLSFSPGERATLSCRASQSVSSYLAWYQQKPGQAPRLLIYGASSRATGIPDRFSGSGSGTDFTFTISRLEPEDFAVYYCQQYGSSPFTFGPGTKVDIK
binds | AGEN1893 (antibody, V domains shown) VH: EVQLLESGGGLVKPGGSLRLSCAASGFTFSSYSMNWVRQAPGKGLEWVSSISSSSSYIYYADSVKGRFTISRDNAKNSLYLQMNSLRAEDTAVYYCARVGLMGPFDIWGQGTMVTVSS VL: EIVLTQSPATLSLSPGERATLSCRASQSVGTYLAWYQHKVGQAPRLLIYGASRRATGIPDRFSGSGSGTDFTLTISRLEPEDFAVYYCQQYGSSPWTFGQGTKVEIK
binds | AGEN1888 (antibody, V domains shown) VH: EVQLLESGGGLVQPGGSLRLSCAASGFTFSSYAMSWVRQAPGKGLVWVSSISSSSSYIYYADSVKGRFTISRDNAKNSLYLQMNSLRAEDTAVYYCARVGLMGPFDIWGQGTMVTVSS VL: EIVLTQSPATLSFSPGERATLSCRASQSVSSYLAWYQQKPGQAPRLLIYGASSRATGIPDRFSGSGSGTDFTFTISRLEPEDFAVYYCQQYGSSPFTFGPGTKVDIK
binds | AGEN1890 (antibody, V domains shown) VH: EVQLVESGGGLVKPGGSLRLSCAASGFTFSSYSMNWVRQAPGKGLEWVSSISSSSSYIYYADSVKGRFTISRDNAKNTLYLQMNSLRAEDTAVYYCARVGLMGPFDIWGQGTMVTVSS VL: EIVLTQSPATLSFSPGERATLSCRASQSVSSYLAWYQQKPGQAPRLLIYGASSRATGIPDRFSGSGSGTDFTFTISRLEPEDFAVYYCQQYGSSPFTFGPGTKVDIK
binds | AGEN1902 (antibody, V domains shown) VH: EVQLVESGGGLVQPGGSLTLSCAASGFTFSSYSMNWVRQAPGKGLEWVSSISSSSSYIYYADSVKGRFTISRDNAKNSLYLQMNSLRAEDTAVYYCARVGLMGPFDIWGQGTMVTVSS VL: EIVLTQSPATLSFSPGERATLSCRASQSVSSYLAWYQQKPGQAPRLLIYGASSRATGIPDRFSGSGSGTDFTFTISRLEPEDFAVYYCQQYGSSPFTFGPGTKVDIK
binds | AGEN1900 (antibody, V domains shown) VH: EVQLLESGGGLVQPGGSLRLSCAASGFTFSSYAMSWVRQAPGKGLVWVSSISSSSSYIYYADSVKGRFTISRDNAKNSLYLQMNSLRAEDTAVYYCARVGLMGPFNIWGQGTMVTVSS VL: EIVLTQSPATLSLSPGERATLSCRASQSVSSYLAWYQQKPGQAPRLLIYGASNRATGIPARFSGSGSGTDFTLTISSLEPEDFAVYYCQQYGSSPFTFGPGTKVDIK
binds | AGEN1891 (antibody, V domains shown) VH: EVQLVESGGGLVKPGGSLRLSCAASGFTFSSYSMNWVRQAPGKGLEWVSSISSSSSYIYYADSVKGRFTISRDNAKNTLYLQMNSLRAEDTAVYYCARVGLMGPFDIWGQGTMVTVSS VL: EIVLTQSPATLSVSPGERATLSCRASQSVSSYLAWYQQKPGQAPRLLIYAASTRATGIPDRFSGSASGTDFTLTISRLEPEDFAVYYCQQYGSSPWTFGQGTKVEIK
binds | AGEN1886 (antibody, V domains shown) VH: EVQLVESGGGLVKPGGSLRLSCAASGFTFSSYSMNWVRQAPGKGLEWVSSISSSSSYIYYADSVKGRFTISRDNAKNSLYLQMNSLRAEDTAVYYCARVGLMGPFDIWGQGTMVTVSS VL: EIVLTQSPATLSFSPGERATLSCRASQSVSSYLAWYQQKPGQAPRLLIYGASSRATGIPDRFSGSGSGTDFTFTISRLEPEDFAVYYCQQYGSSPFTFGPGTKVDIK
binds | AGEN1892 (antibody, V domains shown) VH: EVQLVESGGGLVKPGGSLRLSCAASGFTFSSYSMNWVRQAPGKGLEWVSSISSSSSYIYYADSVKGRFTISRDNAKNTLYLQMNSLRAEDTAVYYCARVGLMGPFDIWGQGTMVTVSS VL: EIVLTQSPATLSLSPGERATLSCRASQSVSSYLAWYQQKPGQAPRLLIYGASNRATGIPARFSGSGSGTDFTLTISSLEPEDFAVYYCQQYGSSPFTFGPGTKVDIK
binds | AGEN1895 (antibody, V domains shown) VH: EVQLLESGGGLVKPGGSLRLSCAASGFTFSSYSMNWVRQAPGKGLEWVSSISSSSSYIYYADSVKGRFTISRDNAKNSLYLQMNSLRAEDTAVYYCARVGLMGPFDIWGQGTMVTVSS VL: EIVLTQSPATLSLSPGERATLSCRASQSVSSYLAWYQQKPGQAPSLLIYATSSRATGIPDRFSGSVSGTDFTLTISRLEPEDFAVYYCQQYGTSPWTFGQGTKVEIK
binds | AGEN1885 (antibody, V domains shown) VH: EVQLVESGGGLVKPGGSLRLSCAASGFTFSSYSMNWVRQAPGKGLEWVSSISSSSSYIYYADSVKGRFTISRDNAKNSLYLQMNSLRAEDTAVYYCARVGLMGPFDIWGQGTMVTVSS VL: EIVLTQSPATLSLSPGERATLSCRASQSVSSYLAWYQQKPGQAPSLLIYATSSRATGIPDRFSGSVSGTDFTLTISRLEPEDFAVYYCQQYGTSPWTFGQGTKVEIK
binds | AGEN1889 (antibody, V domains shown) VH: EVQLVESGGGLVKPGGSLRLSCAASGFTFSSYSMNWVRQAPGKGLEWVSSISSSSSYIYYADSVKGRFTISRDNAKNTLYLQMNSLRAEDTAVYYCARVGLMGPFDIWGQGTMVTVSS VL: EIVLTQSPATLSLSPGERATLSCRASQSVGTYLAWYQHKVGQAPRLLIYGASRRATGIPDRFSGSGSGTDFTLTISRLEPEDFAVYYCQQYGSSPWTFGQGTKVEIK
